{"source": "paper PMC7081292", "origin": "cited, not measured here", "key": {"His57 [1]": {"target": "T1, His57 (UniProt position 57, VVTAAHCGVTT)", "test": "NMR", "details": "zwitterionic tetrahedral adduct with a peptide-derived glyoxal inhibitor"}, "His57 [2]": {"target": "T1, His57", "details": "zwitterionic tetrahedral (hemiacetal) adduct with an aldehyde inhibitor"}}, "note": "Like-named read-outs stand apart in the source and are kept apart here.", "data": [{"substance": "Chymotrypsin (not stated (presumably Bos taurus))", "values": [{"measurement": "pKa", "setting": "His57 [1]", "value": ">11"}, {"measurement": "pKa", "setting": "His57 [2]", "value": "∼ 8"}]}]}
